Molecular target: T1, prefusion-stabilized RSV F (DS-Cav1), subtype B (strain B9320), with C-terminal His tag and Strep-tag II … (human respiratory syncytial virus B, …, UniProt Q6V2E7, stabilised)
T1 construct: copies: 3 + 3
Experiment: SPR
Settings: both partners purified

B1: RSD5-WT Fab (parental RSD5) (Fab, V domains shown)
VH: QVQLVESGGGVVQPGRPLRLSCAASGFAFNNFALHWVRQAPGKGPEWLAAVSYDGTSPYYAESVRARFSISRDNSKKTFYLQLDSLRPEDTAVYYCARGLGSGSYSWIGYFYAMDVWGRGTTVTVSS
VL: QSALTQPASVSGSPGQSITISCTGTSSDVGGYVYVAWYQQHPGTAPKLIIYDVSDRPSGVSNRFSGSKSGNTASLTISGLQAEDDADYYCISYTDRNTVVFGGGTKLTVL
B1: binds.
